Reference: US20260116951A1 (DUCENTIS BIOTHERAPEUTICS, published 2026)

Experiments:
Human CD200R1L = target: T1, Human CD200R1L (human, UniProt Q6Q8B3 24-239, limits assumed); assay: SPR (BIAcore)
T1 construct: nothing is said of the reagent
T1 sequence (looked up): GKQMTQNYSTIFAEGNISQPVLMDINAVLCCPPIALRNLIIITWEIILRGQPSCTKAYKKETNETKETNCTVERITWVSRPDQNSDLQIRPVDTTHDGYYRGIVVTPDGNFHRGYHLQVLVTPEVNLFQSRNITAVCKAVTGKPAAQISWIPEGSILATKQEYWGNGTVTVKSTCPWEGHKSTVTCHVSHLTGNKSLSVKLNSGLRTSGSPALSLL

[1] = target: T2, Recombinant Cyno CD200R, His-tagged (Creative Biomart CD200R1-3483C) (cynomolgus monkey); assay: SPR (BIAcore T200), CD200-Fc captured on anti-human Fc, cyno CD200R flowed, 25 C, 1:1 fit
T2 construct: Bought; also called cynomolgus CD200R1; cynomolgus CD200R
Protocol: (§1) The experiments were performed on a GE Healthcare BIAcore T200. Human, cynomolgus and mouse CD200R proteins were purchased from Creative Biomart (CD200R1-320H, CD200R1-3483C, CD200R1-3280M). All measurements were performed in duplicate.
For human CD200 constructs: anti-human Fc (GE Healthcare) was covalently immobilized on a BIAcore CM5 sensor chip (Cytiva, BR100530) by amine coupling using a Cytiva kit (BR100839) following the manufacturer's instructions, targeting immobilization of 8,000-11,000 RU. CD200-Fc proteins were diluted to 0.5 μg/mL to 4 μg/mL in running Buffer (1×HBS-EP+pH7.4 (Cytiva BR100669), HEPES Buffered Saline pH 7.4 containing 3 mM EDTA and 0.05% v/v Surfactant P20) and flowed for 25 to 100 seconds at 10 μL/min over the immobilized Anti-Human IgG Fc, with a stabilization time of 60 seconds. […]
For mouse CD200 constructs, muCD200R-Fc (Creative Biomart CD200R1-458M) diluted to 1 μg/mL in running buffer was flowed over the immobilized Anti-Human IgG Fc, with CD200 monomers serially diluted and flowed over captured CD200R. […] Data analysis: experimental sensorgrams were analyzed in BIAevaluation software (GE Healthcare). […] Closeness of fit was determined by algorithms provided by the manufacturer in the BIAevaluation software, and data accepted if the Chi² value was less than 10% of Rₘₐₓ, and the U value was less than or equal to 15.

[2] = target: T2, Recombinant Cyno CD200R, His-tagged …; assay: SPR (BIAcore T200), CD200-Fc captured on anti-human Fc, cyno CD200R flowed, 25 C, 1:1 fit, mean of two runs
Protocol: as §1
(§2) For human CD200 constructs: anti-human Fc (GE Healthcare) was covalently immobilized on a BIAcore CM5 sensor chip (Cytiva, BR100530) by amine coupling using a Cytiva kit (BR100839) following the manufacturer's instructions, targeting immobilization of 8,000-11,000 RU. CD200-Fc proteins were diluted to 0.5 μg/mL to 4 μg/mL in running Buffer (1×HBS-EP+pH7.4 (Cytiva BR100669), HEPES Buffered Saline pH 7.4 containing 3 mM EDTA and 0.05% v/v Surfactant P20) and flowed for 25 to 100 seconds at 10 μL/min over the immobilized Anti-Human IgG Fc, with a stabilization time of 60 seconds. Between 35 and 250 RUs of CD200-Fc were captured, with higher RUs used for cynomolgus CD200R binding experiments. […] Analysis temperature was 25° C. This was followed by regeneration of the surface with 30-90 second pulse of 3M MgCl₂ flowed at […] flow rate followed by stabilization of the surface with 60 second flow of running buffer.
(§3) For mouse CD200 constructs, muCD200R-Fc (Creative Biomart CD200R1-458M) diluted to 1 μg/mL in running buffer was flowed over the immobilized Anti-Human IgG Fc, with CD200 monomers serially diluted and flowed over captured CD200R. Other details were as above. Data analysis: experimental sensorgrams were analyzed in BIAevaluation software (GE Healthcare). The curves obtained were fitted to 1:1 Langmuir binding model by setting Rmax and RI as local parameters. Rate equations using standard parameters (e.g. ligand concentration, time) were used for iterative curve fitting. Closeness of fit was determined by algorithms provided by the manufacturer in the BIAevaluation software, and data accepted if the Chi² value was less than 10% of Rₘₐₓ, and the U value was less than or equal to 15.

[3] = target: T3, Human CD200R, full length, on transduced U937 cells (U937-CD200R) (human, UniProt Q8TD46 25-348); assay: Flow cytometry on U937-CD200R cells, 4 hours incubation at 37 C, fluorescent anti-human secondary antibody
T3 construct: whole, on cells; also called U937-CD200R cells; CD200R-expressing U937 cells
T3 sequence (looked up): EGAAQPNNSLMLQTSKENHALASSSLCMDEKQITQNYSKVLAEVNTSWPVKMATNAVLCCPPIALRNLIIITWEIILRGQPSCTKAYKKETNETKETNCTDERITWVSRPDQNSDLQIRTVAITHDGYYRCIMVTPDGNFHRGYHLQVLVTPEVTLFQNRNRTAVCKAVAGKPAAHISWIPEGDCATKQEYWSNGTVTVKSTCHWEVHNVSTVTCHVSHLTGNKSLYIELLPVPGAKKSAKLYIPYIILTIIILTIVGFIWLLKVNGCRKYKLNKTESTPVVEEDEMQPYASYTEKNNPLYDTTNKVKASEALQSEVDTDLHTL
Protocol: Construct treatment (50 μL) was performed starting from 10 μg/mL with 3-fold dilutions up to 10 concentrations with FACS buffer and incubated for 1-hour, 4-hours and 24-hours at 37° C. At the end of each time point, cells were collected and washed. 10 μg/mL of anti-human secondary antibody was added and incubated for 30 minutes at 4° C. Cells were washed post incubation and stained to check viability (1 μL dye per million cells per mL 1×PBS) for 20 minutes at 4° C. Cells were washed and fixed with Fixation buffer (100 μL per test) at 4° C. for 20 minutes. Post incubation, cells were washed and the pellet was re-suspended in FACS buffer (100 μL per test) for data acquisition on flow cytometer.

[4] = target: T4, Recombinant Human CD200R, His-tagged (Creative Biomart CD200R1-320H) (human, UniProt Q8TD46 27-266); assay: SPR (BIAcore), DS-118 captured (0.5 ug/mL), HuCD200R1 flowed at 100 nM to 6.25 nM, 25 C, 1:1 Binding model, run 2
T4 construct: Bought; also called human CD200 receptor; not shown: His tag
T4 sequence (looked up): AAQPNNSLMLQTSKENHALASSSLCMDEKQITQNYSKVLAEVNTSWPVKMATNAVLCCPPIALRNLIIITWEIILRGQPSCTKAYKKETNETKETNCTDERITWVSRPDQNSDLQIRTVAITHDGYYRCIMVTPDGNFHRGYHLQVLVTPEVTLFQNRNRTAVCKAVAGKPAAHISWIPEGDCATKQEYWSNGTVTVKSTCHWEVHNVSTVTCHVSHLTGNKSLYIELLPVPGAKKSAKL
Protocol: as §2, §3

[5] = target: T2, Recombinant Cyno CD200R, His-tagged …; assay: SPR (BIAcore), DS-118 captured (0.5 ug/mL), CynoCD200R1 flowed at 1000 nM to 62.5 nM, 25 C, 1:1 Binding model, run 1
Protocol: as §2, §3

B1: DS-118 (mutated human CD200-Fc fusion protein, K130Y, I131Y, IgG4 S228P Fc) (Fc fusion)
chain: QVQVVTQDEREQLYTPASLKCSLQNAQEALIVTWQKKKAVSPENMVTFSENHGVVIQPAYKDKINITQLGLQNSTITFWNITLEDEGCYMCLFNTFGFGYYSGTACLTVYVQPIVSLHYKFSEDHLNITCSATARPAPMVFWKVPRSGIENSTVTLSHPNGTTSVTSILHIKDPKNQVGKEVICQVLHLGTVTDFKQTVNKGPPCPPCPAPEFLGGPSVFLFPPKPKDTLMISRTPEVTCVVVDVSQEDPEVQFNWYVDGVEVHNAKTKPREEQFNSTYRVVSVLTVLHQDWLNGKEYKCKVSNKGLPSSIEKTISKAKGQPREPQVYTLPPSQEEMTKNQVSLTCLVKGFYPSDIAVEWESNGQPENNYKTTPPVLDSDGSFFLYSRLTVDKSRWQEGNVFSCSVMHEALHNHYTQKSLSLSLGK
notes: also called mutated CD200-Fc; mutant CD200-Fc
binding result (Human CD200R1L): no binding
t½ [1]: 18.2 s
Kd [2]: 206 nM
koff [2]: 0.038 s⁻¹
kon [2]: 186000 M⁻¹ s⁻¹
EC50 (read off the curve) [3]: ~0.9 µg/mL
Kd [4]: 1.42 nM
koff [4]: 0.000329 s⁻¹
kon [4]: 232000 M⁻¹ s⁻¹
Kd [5]: 207 nM
koff [5]: 0.0164 s⁻¹
kon [5]: 79200 M⁻¹ s⁻¹
